Paper PMC7060085 (ACS applied materials & interfaces, 2019)

Target: the molecule itself
Assay: SEC

B1: Physalis mottle virus (PhMV) virus-like particle, native (unmodified recombinant coat protein) (natural protein)
chain: MDSSEVVKVKQASIPAPGSILSQPNTEQSPAIVLPFQFEATTFGTAETAAQVSLQTADPITKLTAPYRHAQIVECKAILTPTDLAVSNPLTVYLAWVPANSPATPTQILRVYGGQSFVLGGAISAAKTIEVPLNLDSVNRMLKDSVTYTDTPKLLAYSRAPTNPSKIPTASIQISGRIRLSKPMLIAN
binding result: binds
